Measurements published in patent US20220380791A1 (ELEVA, published 2022).

Biological target: M6P receptor (M6PR) (human)
Assay: cell-based or functional assay

B1: Agalsidase alfa (Shire, Replagal) (enzyme, UniProt P06280 32-429, looked up)
chain: LDNGLARTPTMGWLHWERFMCNLDCQEEPDSCISEKLFMEMAELMVSEGWKDAGYEYLCIDDCWMAPQRDSEGRLQADPQRFPHGIRQLANYVHSKGLKLGIYADVGNKTCAGFPGSFGYYDIDAQTFADWGVDLLKFDGCYCDSLENLADGYKHMSLALNRTGRSIVYSCEWPLYMWPFQKPNYTEIRQYCNHWRNFADIDDSWKSIKSILDWTSFNQERIVDVAGPGGWNDPDMLVIGNFGLSWNQQVTQMALWAIMAAPLFMSNDLRHISPQAKALLQDKDVIAINQDPLGKQGYQLRQGDNFEVWERPLSGLAWAVAMINRQEIGGPRSYTIAVASLGKGVACNPACFITQLLPVKRKLGFYEWTSRLRSHINPTGTVLLQLENTMQMSLKDLL
modifications: heterogeneous N-glycans, about 24% phosphorylated (M6P) glycans
intracellular α-gal A activity of Fabry patient fibroblasts after 18 hours incubation with 10 µg/ml enzyme (fold of untreated cells): 116 fold
